Results reported in paper doi:10.1101/2025.07.22.666130 (bioRxiv, 2025).
Read-outs that look alike come from different tables or passages of the source.

B5: 15N-labeled RAD52-CTD (217-418), GST tag cleaved (domain or fragment)
chain: PQLQQVTSPSRPSHAVIPADQDCSSRSLSSSAVESEATHQRKLRQKQLQQQFRERMEKQQVRVSTPSAEKSEAAPPAPPVTHSTPVTVSEPLLEKDFLAGVTQELIKTLEDNSEKWAVTPDAGDGVVKPSSRADPAQTSDTLALNNQMVTQNRTPHSVCHQKPQAKSGSWDLQTYSADQRTTGNWESHRKSQDMKKRKYDPS
modifications: uniformly 15N labeled

Assays:
[1] = molecular target: RPA heterotrimer (RPA70:RPA32:RPA14) (human, UniProt P27694;P15927;P35244 1-616;1-270;1-121); assay: EMSA
RAD52-CTD [2] = molecular target: T1, RAD52-CTD (UniProt P43351 217-418); assay: EMSA
T1 sequence: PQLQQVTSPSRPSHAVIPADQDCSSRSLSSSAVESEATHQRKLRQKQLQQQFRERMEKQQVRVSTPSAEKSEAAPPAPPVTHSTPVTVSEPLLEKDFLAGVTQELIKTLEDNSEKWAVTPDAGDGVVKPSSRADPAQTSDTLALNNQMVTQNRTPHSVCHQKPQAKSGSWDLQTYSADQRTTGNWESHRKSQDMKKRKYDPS

RAD52 full length [3] = molecular target: T2, RAD52 full length (UniProt P43351 1-418); assay: EMSA
T2 sequence: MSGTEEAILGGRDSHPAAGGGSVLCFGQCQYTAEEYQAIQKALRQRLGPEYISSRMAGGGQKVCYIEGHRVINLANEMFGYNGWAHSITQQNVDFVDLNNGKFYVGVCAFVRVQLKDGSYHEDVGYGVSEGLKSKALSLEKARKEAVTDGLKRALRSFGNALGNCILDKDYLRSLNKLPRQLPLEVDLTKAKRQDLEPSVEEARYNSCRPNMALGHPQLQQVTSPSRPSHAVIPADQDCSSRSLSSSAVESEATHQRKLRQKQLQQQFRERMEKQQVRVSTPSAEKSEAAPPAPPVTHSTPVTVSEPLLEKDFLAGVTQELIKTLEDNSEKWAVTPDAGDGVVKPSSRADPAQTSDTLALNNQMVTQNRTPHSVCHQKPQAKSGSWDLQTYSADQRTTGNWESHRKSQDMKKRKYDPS

RAD52-CTD [4] = molecular target: T1, RAD52-CTD; assay: EMSA; remark: listed apart in the source
RAD52 full length [5] = molecular target: T2, RAD52 full length; assay: EMSA; remark: listed apart in the source
[6] = molecular target: B5; assay: NMR titration
[7] = molecular target: T3, full-length RPA trimer (RPA70:RPA14:RPA32) (human, UniProt P27694;P15927;P35244); assay: pull-down
[8] = molecular target: T3, full-length RPA trimer …; assay: NMR titration
[9] = molecular target: T3, full-length RPA trimer …; assay: pull-down; remark: listed apart in the source

T3 sequence (P15927 whole entry, chain 2 of 2): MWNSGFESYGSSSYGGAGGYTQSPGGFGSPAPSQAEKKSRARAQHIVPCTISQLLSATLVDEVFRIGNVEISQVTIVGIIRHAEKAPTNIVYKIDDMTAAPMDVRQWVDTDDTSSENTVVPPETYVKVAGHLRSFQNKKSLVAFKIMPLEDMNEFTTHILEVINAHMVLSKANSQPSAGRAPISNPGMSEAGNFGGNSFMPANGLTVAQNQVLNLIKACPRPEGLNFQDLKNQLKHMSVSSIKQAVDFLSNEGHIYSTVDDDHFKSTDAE
T3 sequence (P35244 whole entry, chain 3 of 2): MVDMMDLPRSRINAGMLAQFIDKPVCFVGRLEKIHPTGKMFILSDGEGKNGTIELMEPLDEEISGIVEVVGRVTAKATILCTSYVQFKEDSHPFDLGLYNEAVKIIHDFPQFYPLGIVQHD
Sequence of RPA heterotrimer (RPA70:RPA32:RPA14) (P15927 whole entry, chain 2 of 2): as the sequence (P15927 whole entry, chain 2 of 2) above
Sequence of RPA heterotrimer (RPA70:RPA32:RPA14) (P35244 whole entry, chain 3 of 2): as the sequence (P35244 whole entry, chain 3 of 2) above

B1: no. 517 63-mer RNA (ssRNA)
RNA: UCCUUUUGAUAAGAGGUCAUUUUUGCGGAUGGCUUAGAGCUUAAUUGCUGAAUCUGGUGCUGU
B1: binds [1]; no binding (RAD52-CTD [2]); binds (RAD52 full length [3]).

B2: no. 1 63-mer ssDNA (ssDNA)
DNA: ACAGCACCAGATTCAGCAATTAAGCTCTAAGCCATCCGCAAAAATGACCTCTTATCAAAAGGA
B2: no binding (RAD52-CTD [4]); binds (RAD52 full length [5]).

B3: Human RPA70N (1-120) (domain or fragment)
chain: MVGQLSEGAIAAIMQKGDTNIKPILQVINIRPITTGNSPPRYRLLMSDGLNTLSSFMLATQLNPLVEEEQLSSNCVCQIHRFIVNTLKDGRRVVILMELEVLKSAEAVGVKIGNPVPYNE
B3: binds [6].

B4: GST-tagged RAD52 CTD (217-418) wild type (domain or fragment)
chain: PQLQQVTSPSRPSHAVIPADQDCSSRSLSSSAVESEATHQRKLRQKQLQQQFRERMEKQQVRVSTPSAEKSEAAPPAPPVTHSTPVTVSEPLLEKDFLAGVTQELIKTLEDNSEKWAVTPDAGDGVVKPSSRADPAQTSDTLALNNQMVTQNRTPHSVCHQKPQAKSGSWDLQTYSADQRTTGNWESHRKSQDMKKRKYDPS
B4: binds [7].

B5: binds [8].

B6: GST-tagged RAD52 CTD (217-418) L314A/V317N/L321Q/I322Q/L325A/W332A (domain or fragment, human, UniProt P43351 217-418, looked up)
chain: PQLQQVTSPSRPSHAVIPADQDCSSRSLSSSAVESEATHQRKLRQKQLQQQFRERMEKQQVRVSTPSAEKSEAAPPAPPVTHSTPVTVSEPLLEKDFAAGNTQEQQKTAEDNSEKAAVTPDAGDGVVKPSSRADPAQTSDTLALNNQMVTQNRTPHSVCHQKPQAKSGSWDLQTYSADQRTTGNWESHRKSQDMKKRKYDPS
B6: binds [9].
